T1: MBP-ER_CD_(T/S8A), phosphonull version (Arabidopsis, UniProt Q42371 602-976, Thr947 (T/S8A) | Ser950 (T/S8A) | Ser954 (T/S8A) | Ser955 (T/S8A) | Ser957 …)
T1 sequence: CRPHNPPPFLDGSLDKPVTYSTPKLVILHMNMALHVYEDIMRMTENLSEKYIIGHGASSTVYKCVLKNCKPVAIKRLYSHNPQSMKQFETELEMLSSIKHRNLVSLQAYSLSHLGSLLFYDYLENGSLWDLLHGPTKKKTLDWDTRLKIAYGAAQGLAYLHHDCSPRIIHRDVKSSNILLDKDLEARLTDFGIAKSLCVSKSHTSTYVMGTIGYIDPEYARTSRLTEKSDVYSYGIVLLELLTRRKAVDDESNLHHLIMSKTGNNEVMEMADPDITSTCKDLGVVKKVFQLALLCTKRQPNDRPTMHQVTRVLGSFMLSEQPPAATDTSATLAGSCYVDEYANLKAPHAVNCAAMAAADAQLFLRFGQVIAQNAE

T2: MBP-ER_CD_(T/S8E), phosphomimetic version (Arabidopsis, UniProt Q42371 602-976, Thr947 (T/S8E) | Ser950 (T/S8E) | Ser954 (T/S8E) | Ser955 (T/S8E) | Ser957 …)
T2 sequence: T1 sequence with A346E, A349E, A353E, A354E, A356E, A358E, A371E, A374E

T3: GST-PUB30 (U-box E3 ligase PUB30) (UniProt Q058P4 1-448)
T3 construct: plant U-box (PUB) E3 ubiquitin ligase PUB30; Tag end from the order of the printed name; source: recombinantly purified; not shown: GST, N-terminal, kept
T3 sequence (looked up): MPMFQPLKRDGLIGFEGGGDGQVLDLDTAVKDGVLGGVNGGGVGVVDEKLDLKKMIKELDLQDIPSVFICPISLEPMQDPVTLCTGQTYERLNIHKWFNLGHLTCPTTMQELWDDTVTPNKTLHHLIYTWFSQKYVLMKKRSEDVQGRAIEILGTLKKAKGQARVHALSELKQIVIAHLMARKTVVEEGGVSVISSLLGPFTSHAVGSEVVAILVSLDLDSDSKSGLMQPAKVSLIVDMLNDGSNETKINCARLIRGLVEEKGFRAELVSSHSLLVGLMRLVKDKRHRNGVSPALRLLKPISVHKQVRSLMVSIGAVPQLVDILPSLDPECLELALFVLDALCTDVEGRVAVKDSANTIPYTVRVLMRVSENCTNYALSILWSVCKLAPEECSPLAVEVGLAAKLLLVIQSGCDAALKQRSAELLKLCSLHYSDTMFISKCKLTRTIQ

T4: MBP-ER_CD_(T/S8A), phosphonull version (Arabidopsis, UniProt Q42371 602-976, Thr947 (T/S8A) | Ser950 (T/S8A) | Ser954 (T/S8A) | Ser955 (T/S8A) | Ser957 …)
T4 construct: ERECTA (ER), Arabidopsis, cytoplasmic domain with the eight phosphosites of the C-terminal tail changed to alanine; Tag end from the order of the printed name; source: recombinant, purified; not shown: MBP, N-terminal, kept
T4 sequence (looked up): T1 sequence

B1: GST-PUB30 (U-box E3 ligase PUB30) (enzyme)
chain: T3 sequence (looked up)
B2: MBP-fused full-length ER cytoplasmic domain (MBP-ER_CD) (domain or fragment, Arabidopsis, UniProt Q42371 602-976, looked up)
chain: T1 sequence with A346T, A349S, A353S, A354S, A356S, A358S, A371S, A374S
notes: ERECTA (ER) receptor kinase, Arabidopsis, cytoplasmic domain (juxtamembrane domain, kinase domain and C-terminal tail); source: recombinant, expressed and purified; not shown: MBP, N-terminal, kept
B3: MBP-ER_CD_(T/S8E), phosphomimetic version (domain or fragment, Arabidopsis, UniProt Q42371 602-976, looked up)
chain: T1 sequence with A346E, A349E, A353E, A354E, A356E, A358E, A371E, A374E
notes: ERECTA (ER), Arabidopsis, cytoplasmic domain with the eight phosphosites of the C-terminal tail changed to glutamate; Tag end from the order of the printed name; source: recombinant, purified; not shown: MBP, N-terminal, kept
B4: GST-BKI1 (BRI1 KINASE INHIBITOR 1) (natural protein, UniProt Q9FMZ0 1-337, looked up)
chain: METNLQQVKNSSQTFSEKQNPKQEASPSPISSTCSSPSHDFSFTISLQPLSSSSKHISPTLRSPSKTTSSYQQTDPFAVDLSPADEIFFHGHLLPLHLLSHLPVSPRTSTGSYNDGFTLPVKDILPDQPTNNNNNTENAITNISTEAKDDNTEDKAEGEIRVKTKPIKSFSLFGLSKWRKGFESNEREQEQQQQKIKKPMSLDLSHAVKKYIRMLFQKRGNGTQFWNRRQTSSYSFSSSLMGPNGNSKTMINGSYNKRDLIRGRRGELFSAPASMRTSPTNSGHLRVSTAGLSSSSGSTSSSSSDSTMEELQAAIQAAIAHCKNSSAVDRDDKVKDS
notes: Tag end from the order of the printed name; source: recombinantly purified; not shown: GST, N-terminal, kept

Substitutions are numbered along the chain they refer to. Numbers in names are those of the source.

The target in assay [1] is GST-PUB30 (U-box E3 ligase PUB30) (UniProt Q058P4). Description: BLI; recombinantly purified GST-BKI1 or GST-PUB30 and MBP-ER_CD variants at seven concentrations (156.25, 312.5, 625, 1,250, 2,500, 5,000 and 10,000 nM); three independent experiments; who was immobilised is in SI Appendix. On the technique in general: BLI is a label-free optical method that tracks binding on a fibre tip over time.

In assay [2] the target is GST-BKI1 (BRI1 KINASE INHIBITOR 1) (UniProt Q9FMZ0). The assay is described as above.
The target of assay [3] is T1, MBP-ER_CD_(T/S8A), phosphonull version. Description: BLI.
Assay [4] concerns the target T2, MBP-ER_CD_(T/S8E), phosphomimetic …. Description: BLI.
The target of assay [5] is T3, GST-PUB30 (U-box E3 ligase PUB30). The assay is described as follows: BLI; recombinantly purified GST-BKI1 or GST-PUB30 and MBP-ER_CD variants at seven concentrations (156.25, 312.5, 625, 1,250, 2,500, 5,000 and 10,000 nM); three independent experiments; who was immobilised is in SI Appendix. As to conditions: both partners purified.
The target of assay [6] is T4, MBP-ER_CD_(T/S8A), phosphonull version. The assay is described as above. As to conditions: both partners purified.
For assay [7], the target named is B2. The assay is described as above. The conditions noted are these: both partners purified.

What is called Kd is the free concentration of one partner at which half of the binding sites on the other are occupied at equilibrium, for simple one-to-one binding. For “MBP-ER_CD_(ΔCTα-Helix) (domain or fragment)”, the Kd in assay [1] is 0.805 µM; in assay [2] it was 47.7 µM.
On to B1, for which the equilibrium dissociation constant (Kd) in assay [3] came out at 9.5 µM; in assay [4], 0.194 µM.
As for B2, the dissociation constant Kd in assay [5] was found to be 0.393 ± 0.048 µM.
Consider B3, for which the binding result in assay [5] is reported as “binds”.
For B4, the binding result in assay [6] is reported as “binds”. Also, the Kd was 3.7 ± 0.7 µM in assay [7], 3.8 µM in assay [3] and 18 µM in assay [4].

These data come from article PMC11789017, “Preventing inappropriate signals pre- and post-ligand perception by a toggle switch mechanism of ERECTA” (Proceedings of the National Academy of Sciences of the …, 2025).
